# Experiments:
# [1] = biological target: T1, RHOA-LgBiT-N (RhoA fused to LgBiT) (human (from the RefSeq entry NM_001664; …, UniProt P61586 1-193); test: split reporter (BiFC, NanoBiT); NanoBiT in HEK293T cells co-transfected with SmBiT and LgBiT fusion plasmids (500 ng DNA in all, 24-well plate); 24 h after transfection medium replaced by OPTI-MEM, substrate added, signal read for 30 min; negative control: SmBiT-MAP3K1 plasmid alone; conditions: partners not purified
# T1 construct: RhoA, RHOA gene (NM_001664); On which end of RhoA the LgBiT stands is not clear from the two names used; also called LgBit-RhoA-N; source: HEK293T, transfected, in cells
# [2] = biological target: T2, RHOA-3×Flag (human (from the RefSeq entry NM_001664; …, UniProt P61586 1-193); test: co-IP; HEK293T cells co-transfected with MAP3K1-3×HA and RHOA-3×Flag; 48 h after transfection lysed in modified RIPA buffer; anti-Flag or anti-HA magnetic beads overnight at 4°C; blot with anti-HA or anti-FLAG; ratio of Co-IP to IP band intensity; conditions: partners not purified
# T2 construct: RhoA, RHOA gene (NM_001664) cloned into p3×Flag-CMV-14; also called RhoA-Flag; source: HEK293T, transfected, in lysate
# T2 sequence (P61586 whole entry): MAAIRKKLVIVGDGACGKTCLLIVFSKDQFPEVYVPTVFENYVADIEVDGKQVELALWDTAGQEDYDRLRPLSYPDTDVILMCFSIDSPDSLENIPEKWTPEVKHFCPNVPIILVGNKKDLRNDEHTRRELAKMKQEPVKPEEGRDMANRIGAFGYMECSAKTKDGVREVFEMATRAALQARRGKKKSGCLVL
# T1 sequence (P61586 whole entry, the tested form may be a part): as the sequence (P61586 whole entry) above
fold of the wild type's NanoBiT signal [1],fold of the wild type's ratio of Co-IP to IP signal [2] [times wild type],Binder
3.19 ± 0.18 fold of wild type,–,"MAP3K1^R186G-SmBiT-C (R186G variant of MAP3K1 fused to SmBiT) (enzyme, human, UniProt Q13233 1-1512, looked up, Same construct as m1 with the patient variant; The end of the SmBiT is not clear; also called MAP3K1-Mut; p.R186G variant; source: HEK293T, transfected, in cells) MAAAAGNRASSSGFPGARATSPEAGGGGGALKASSAPAAAAGLLREAGSGGRERADWRRRQLRKVRSVELDQLPEQPLFLAASPPASSTSPSPEPADAAGSGTGFQPVAVPPPHGAASRGGAHLTESVAAPDSGASSPAAAEPGEKRAPAAEPSPAAAPAGREMENKETLKGLHKMDDRPEERMIGEKLKATCMPAWKHEWLERRNRRGPVVVKPIPVKGDGSEMNHLAAESPGEVQASAASPASKGRRSPSPGNSPSGRTVKSESPGVRRKRVSPVPFQSGRITPPRRAPSPDGFSPYSPEETNRRVNKVMRARLYLLQQIGPNSFLIGGDSPDNKYRVFIGPQNCSCARGTFCIHLLFVMLRVFQLEPSDPMLWRKTLKNFEVESLFQKYHSRRSSRIKAPSRNTIQKFVSRMSNSHTLSSSSTSTSSSENSIKDEEEQMCPICLLGMLDEESLTVCEDGCRNKLHHHCMSIWAEECRRNREPLICPLCRSKWRSHDFYSHELSSPVDSPSSLRAAQQQTVQQQPLAGSRRNQESNFNLTHYGTQQIPPAYKDLAEPWIQVFGMELVGCLFSRNWNVREMALRRLSHDVSGALLLANGESTGNSGGSSGSSPSGGATSGSSQTSISGDVVEACCSVLSMVCADPVYKVYVAALKTLRAMLVYTPCHSLAERIKLQRLLQPVVDTILVKCADANSRTSQLSISTLLELCKGQAGELAVGREILKAGSIGIGGVDYVLNCILGNQTESNNWQELLGRLCLIDRLLLEFPAEFYPHIVSTDVSQAEPVEIRYKKLLSLLTFALQSIDNSHSMVGKLSRRIYLSSARMVTTVPHVFSKLLEMLSVSSSTHFTRMRRRLMAIADEVEIAEAIQLGVEDTLDGQQDSFLQASVPNNYLETTENSSPECTVHLEKTGKGLCATKLSASSEDISERLASISVGPSSSTTTTTTTTEQPKPMVQTKGRPHSQCLNSSPLSHHSQLMFPALSTPSSSTPSVPAGTATDVSKHRLQGFIPCRIPSASPQTQRKFSLQFHRNCPENKDSDKLSPVFTQSRPLPSSNIHRPKPSRPTPGNTSKQGDPSKNSMTLDLNSSSKCDDSFGCSSNSSNAVIPSDETVFTPVEEKCRLDVNTELNSSIEDLLEASMPSSDTTVTFKSEVAVLSPEKAENDDTYKDDVNHNQKCKEKMEAEEEEALAIAMAMSASQDALPIVPQLQVENGEDIIIIQQDTPETLPGHTKAKQPYREDTEWLKGQQIGLGAFSSCYQAQDVGTGTLMAVKQVTYVRNTSSEQEEVVEALREEIRMMSHLNHPNIIRMLGATCEKSNYNLFIEWMAGGSVAHLLSKYGAFKESVVINYTEQLLRGLSYLHENQIIHRDVKGANLLIDSTGQRLRIADFGAAARLASKGTGAGEFQGQLLGTIAFMAPEVLRGQQYGRSCDVWSVGCAIIEMACAKPPWNAEKHSNHLALIFKIASATTAPSIPSHLSPGLRDVALRCLELQPQDRPPSRELLKHPVFRTTW"
–,2.57,"MAP3K1^R186G-3×HA (enzyme, human, UniProt Q13233 1-1512, looked up, human MAP3K1, full-length cDNA NM_005921.2 with the patients' variant c.556A>G, cloned into pcDNA3.1(+)-3×HA; Same construct as m7 with the patient variant; also called R186G variant; source: HEK293T, transfected, in lysate) MAAAAGNRASSSGFPGARATSPEAGGGGGALKASSAPAAAAGLLREAGSGGRERADWRRRQLRKVRSVELDQLPEQPLFLAASPPASSTSPSPEPADAAGSGTGFQPVAVPPPHGAASRGGAHLTESVAAPDSGASSPAAAEPGEKRAPAAEPSPAAAPAGREMENKETLKGLHKMDDRPEERMIGEKLKATCMPAWKHEWLERRNRRGPVVVKPIPVKGDGSEMNHLAAESPGEVQASAASPASKGRRSPSPGNSPSGRTVKSESPGVRRKRVSPVPFQSGRITPPRRAPSPDGFSPYSPEETNRRVNKVMRARLYLLQQIGPNSFLIGGDSPDNKYRVFIGPQNCSCARGTFCIHLLFVMLRVFQLEPSDPMLWRKTLKNFEVESLFQKYHSRRSSRIKAPSRNTIQKFVSRMSNSHTLSSSSTSTSSSENSIKDEEEQMCPICLLGMLDEESLTVCEDGCRNKLHHHCMSIWAEECRRNREPLICPLCRSKWRSHDFYSHELSSPVDSPSSLRAAQQQTVQQQPLAGSRRNQESNFNLTHYGTQQIPPAYKDLAEPWIQVFGMELVGCLFSRNWNVREMALRRLSHDVSGALLLANGESTGNSGGSSGSSPSGGATSGSSQTSISGDVVEACCSVLSMVCADPVYKVYVAALKTLRAMLVYTPCHSLAERIKLQRLLQPVVDTILVKCADANSRTSQLSISTLLELCKGQAGELAVGREILKAGSIGIGGVDYVLNCILGNQTESNNWQELLGRLCLIDRLLLEFPAEFYPHIVSTDVSQAEPVEIRYKKLLSLLTFALQSIDNSHSMVGKLSRRIYLSSARMVTTVPHVFSKLLEMLSVSSSTHFTRMRRRLMAIADEVEIAEAIQLGVEDTLDGQQDSFLQASVPNNYLETTENSSPECTVHLEKTGKGLCATKLSASSEDISERLASISVGPSSSTTTTTTTTEQPKPMVQTKGRPHSQCLNSSPLSHHSQLMFPALSTPSSSTPSVPAGTATDVSKHRLQGFIPCRIPSASPQTQRKFSLQFHRNCPENKDSDKLSPVFTQSRPLPSSNIHRPKPSRPTPGNTSKQGDPSKNSMTLDLNSSSKCDDSFGCSSNSSNAVIPSDETVFTPVEEKCRLDVNTELNSSIEDLLEASMPSSDTTVTFKSEVAVLSPEKAENDDTYKDDVNHNQKCKEKMEAEEEEALAIAMAMSASQDALPIVPQLQVENGEDIIIIQQDTPETLPGHTKAKQPYREDTEWLKGQQIGLGAFSSCYQAQDVGTGTLMAVKQVTYVRNTSSEQEEVVEALREEIRMMSHLNHPNIIRMLGATCEKSNYNLFIEWMAGGSVAHLLSKYGAFKESVVINYTEQLLRGLSYLHENQIIHRDVKGANLLIDSTGQRLRIADFGAAARLASKGTGAGEFQGQLLGTIAFMAPEVLRGQQYGRSCDVWSVGCAIIEMACAKPPWNAEKHSNHLALIFKIASATTAPSIPSHLSPGLRDVALRCLELQPQDRPPSRELLKHPVFRTTW"
